We go through three substances from US20100183556A1.

The test addresses B-domain-deleted human coagulation factor VIII (human) (UniProt P00451). Briefly: cell-based or functional assay.
Chain of UniProt P00451 (P00451 other isoform, or with tags, fused parts or gaps limits assumed): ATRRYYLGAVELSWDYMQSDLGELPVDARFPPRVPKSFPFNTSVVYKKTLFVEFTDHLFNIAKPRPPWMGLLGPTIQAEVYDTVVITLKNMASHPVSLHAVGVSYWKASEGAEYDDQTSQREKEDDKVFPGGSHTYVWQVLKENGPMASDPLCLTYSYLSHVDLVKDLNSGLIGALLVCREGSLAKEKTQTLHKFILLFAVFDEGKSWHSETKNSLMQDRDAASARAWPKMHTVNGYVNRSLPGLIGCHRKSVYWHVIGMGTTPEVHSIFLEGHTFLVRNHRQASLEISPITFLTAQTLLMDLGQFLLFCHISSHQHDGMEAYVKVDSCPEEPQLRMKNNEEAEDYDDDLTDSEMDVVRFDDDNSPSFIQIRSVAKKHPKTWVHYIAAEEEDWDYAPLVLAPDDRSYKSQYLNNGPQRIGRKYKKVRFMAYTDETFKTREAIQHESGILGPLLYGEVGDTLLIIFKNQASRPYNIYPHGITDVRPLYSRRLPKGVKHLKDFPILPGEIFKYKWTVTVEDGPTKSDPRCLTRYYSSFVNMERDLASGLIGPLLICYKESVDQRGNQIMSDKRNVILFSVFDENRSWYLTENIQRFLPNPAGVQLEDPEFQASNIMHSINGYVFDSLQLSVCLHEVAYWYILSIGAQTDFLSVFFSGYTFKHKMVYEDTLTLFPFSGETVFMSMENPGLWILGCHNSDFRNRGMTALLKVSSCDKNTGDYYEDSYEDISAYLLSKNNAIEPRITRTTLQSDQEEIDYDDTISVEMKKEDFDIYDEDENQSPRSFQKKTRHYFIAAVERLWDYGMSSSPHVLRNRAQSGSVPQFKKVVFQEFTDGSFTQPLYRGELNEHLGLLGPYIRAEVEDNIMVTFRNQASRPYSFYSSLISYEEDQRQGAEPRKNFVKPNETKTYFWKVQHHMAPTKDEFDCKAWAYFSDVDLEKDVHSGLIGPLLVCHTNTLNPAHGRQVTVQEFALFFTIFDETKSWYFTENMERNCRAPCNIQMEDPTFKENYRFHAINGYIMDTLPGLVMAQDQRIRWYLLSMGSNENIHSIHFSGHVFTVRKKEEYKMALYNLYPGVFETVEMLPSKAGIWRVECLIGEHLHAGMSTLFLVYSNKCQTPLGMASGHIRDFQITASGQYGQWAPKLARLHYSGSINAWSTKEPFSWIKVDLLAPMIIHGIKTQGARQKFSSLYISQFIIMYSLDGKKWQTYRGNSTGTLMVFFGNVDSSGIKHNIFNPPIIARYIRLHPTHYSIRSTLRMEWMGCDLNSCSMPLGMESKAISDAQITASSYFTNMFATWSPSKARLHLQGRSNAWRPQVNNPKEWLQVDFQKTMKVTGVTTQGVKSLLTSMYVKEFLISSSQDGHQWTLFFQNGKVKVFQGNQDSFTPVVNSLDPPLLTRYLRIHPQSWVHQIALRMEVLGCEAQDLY

Turning to “mutant von Willebrand factor vWF23 (exons 24-46 of vWF deleted) (from UniProt P04275 23-2813)”, the FVIII activity (chromogenic assay) in supernatant of 293T cells co-transfected with pREP7-BDD.FVIII and pRex23 came out at 28.9; the FVIII activity in supernatant of K562 cells co-transduced with vBDD.FVIII and vEx23 at a MOI of 1.5 came out at 33.9.

In turn, “full length von Willebrand factor (vWF) (from UniProt P04275 23-2813)” showed an FVIII activity (chromogenic assay) in supernatant of 293T cells co-transfected with pREP7-BDD.FVIII and pRex52 of 199; an FVIII activity in supernatant of K562 cells co-transduced with vBDD.FVIII and vEx52 at a MOI of 1.5 of 28.3.

“mutant von Willebrand factor vWF28 (exons 29-46 of vWF deleted) (from UniProt P04275 23-2813)” displayed an FVIII activity (chromogenic assay) in supernatant of 293T cells co-transfected with pREP7-BDD.FVIII and pRex28 of 107; an FVIII activity in supernatant of K562 cells co-transduced with vBDD.FVIII and vEx28 at a MOI of 1.5 of 53.3.
